A word on the Kd: it is the free concentration of one partner at which half of the binding sites on the other are occupied at equilibrium, for simple one-to-one binding.

In one assay the target is T1, human CD33 protein (human, UniProt P20138 18-259).
T1 construct: extracellular domain; It is not tied to the protein used in the screen, so it is not used here; also called recombinant human CD33 protein; CD33 ECD proteins
In words: SPR (BIACORE T200), antibody fragment captured by affinity tag, 100 nM human CD33 flowed over, estimate from one concentration; column KD; no unit printed on the sheet. The procedure: The scFv proteins in the supernatant were analyzed for their ability to bind to CD33 ECD proteins by ELISA and CD33-overexpressing MV4-11 cell lines by FACS. All binders were sequenced and some were subjected to for further characterization including affinity ranking by surface plasmon resonance (SPR) on a BIACORE® T200 instrument. The experiments were carried out as follows: the crude […] proteins were captured through an affinity tag onto the sensorchip. High-concentration (100 nM) of human CD33 flowed over the sensorchip surface, and was allowed to bind the antibody fragments. On-rate (kon) and off-rate (koff) were roughly calculated based on the association and dissociation of one antigen concentration, and were used to estimate the equilibrium dissociation constant (KD).

For a further assay, the target named is T2, Human CD33 C2 domain (human, UniProt P20138).
T2 construct: C2 domain only; also called C2-set Ig-like domain of human CD33
T2 sequence (P20138 145-228 limits assumed): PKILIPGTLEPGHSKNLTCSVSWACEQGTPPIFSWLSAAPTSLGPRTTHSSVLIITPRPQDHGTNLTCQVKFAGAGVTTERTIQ
Nature of the assay: +/- column 'Human CD33 C2 domain' of the drawn table; legend: cell binding properties; assay not named on the sheet.

T1 sequence (P20138 18-259): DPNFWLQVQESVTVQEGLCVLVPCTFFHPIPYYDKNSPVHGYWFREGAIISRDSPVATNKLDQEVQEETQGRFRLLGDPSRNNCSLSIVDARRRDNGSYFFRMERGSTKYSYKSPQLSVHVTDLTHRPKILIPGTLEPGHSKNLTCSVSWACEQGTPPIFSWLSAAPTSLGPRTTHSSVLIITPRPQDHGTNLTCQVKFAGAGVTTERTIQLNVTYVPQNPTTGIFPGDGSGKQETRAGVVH

B1: AS188893 (scFv)
scFv (VL-linker-VH): SYELTQPSAVSVSLGQTARITCQGGNLGTSYVHWYQQKPGQAPVLVIYGDDSRPSGIPERFSGSSSGGTATLTISGAQAEDEADYYCQSYDSSSSVFGGGTHLTVLGGGGSGGGGSGGGGSQVQLQESGGGLVQPGGSLRLSCAASGFTFSNNWMYWVRQAPGKGLEWVSSIATGDGSTNSADSVKGRFTISRDNTKNMLYLQMNSLKSEDTALYYCAKGVNIDHDVGAGDYWGQGTQVTVSS
notes: Format as for f1; also called anti-CD33 IgG1 AS188893; AS188893 scFv
Regarding B1, in the assay with human CD33 protein, the Kd is 0.064 nM.

B2: AS199911 (scFv)
scFv (VL-linker-VH): SYELTQPSALSVTLGQSAKITCQGDNFETTYVHWYQQKPGQAPVLVIYNDDSRPSGIPERFSGSNSGDRATLTISGAQAEDEGDYYCQSADTSGNAYVFGGGTHLTVLGGGGSGGGGSGGGGSAVQLVESGGGLVQPGGSLRLSCAASGFTFSRSDMSWVRQAPGKGLEWVSYINSGGGTNRYADSVKARFTIFRDNAKNTLYLQMNTLKPEDTAVYYCAKSGFDSDWIFGYLERWGQGTLVTVSS
notes: Format as for f1; also called anti-CD33 IgG1 AS199911; AS199911 scFv
For B2, the Kd in the assay with human CD33 protein was 0.35 nM.

B3: AS141869 (scFv)
scFv (VL-linker-VH): NFMLTQPSAVSVSLGETARITCQGGNVGTSYASWYQQKPGQAPVLVIYGNSNRPSGIPERFSGSKSGGTATLTISGAQAEDEADYYCQSADSRGYVAFGGGTHLTVLGGGGSGGGGSGGGGSQVQLQESGGGLVQPGGSLRLSCAASGFTFSSYDITWVRQAPGKGLEWVSAINSGGNSTYYADSVKGRFTISRDNAKNTLYLQMNSLKTEDTAVYYCATAIEREEDPLWVGPEYNYWGQGTQVTVSS
notes: The legend calls it anti-CD33 IgG1; also called anti-CD33 IgG1 AS141869; AS141869 scFv
Take B3: the Kd with human CD33 protein was 11.5 nM. In addition, in the assay with Human CD33 C2 domain, the binding result is on record as “no binding (tested: not given)”.

B4: AS141837 (scFv)
scFv (VL-linker-VH): SSELTQPSAVSVSLGETARITCQGVNVGSYYASWYQQKPGQAPVLVIYGNSNRPSGIPERFSGSKSGGTATLTISGAQAEDEADYYCQSADSSAFNAVFGGGTHLTVLGGGGSGGGGSGGGGSQVQLVQSGGGLVQPGGSLRLSCAASGFTFSSYDMTWVRQAPGKGLEWVSAVNSGGGTTYYADSVKGRFTISRDNAKNTLYLQMNSLKTEDTAVYYCATAIEREEDPLWVGPEYNTWGQGTQVTVSS
notes: Format as for f1; also called anti-CD33 IgG1 AS141837; AS141837 scFv
As for B4, in the assay with human CD33 protein, the dissociation constant Kd is 21.4 nM. In addition, in the assay with Human CD33 C2 domain, the binding result was “no binding (tested: not given)”.

B5: AS141962 (scFv)
scFv (VL-linker-VH): QAVLTQPSSVSGTPGQTVTISCAGTSSDVGSTNYVSWYRQLPGTAPKLLIYQVNYRASGIADRFSGSKSGNTASLTISGLQSADEADYYCASRSGNNFVFGGGTHLTVLGGGGSGGGGSGGGGSEVQLVESGGGLVQPGGSLRLSCAASGFTFSDFSIFWVRQAPGKGLEWVSSINFGGDRTYYADSVKGRFTISRNNAENTVYLQMNSLKAEDTAAYHCVTTAVALADCSGGCYTPGAFNAWGQGTLVTISS
notes: Format as for f1; also called anti-CD33 IgG1 AS141962; AS141962 scFv
For B5, the Kd with human CD33 protein was 3.06 nM. Further, the binding result with Human CD33 C2 domain is reported as “no binding (tested: not given)”.

B6: AS199757 (scFv)
scFv (VL-linker-VH): NFMLTQPPSVSGSPGQKFTISCTGSSNNIGDNYVNWYQHLPGTAPKLLIYSNNNRASGVPDRFSGSKSGSSASLTITGLQAEDEADYYCSSWDDSLSGFVFGGGTHLTVLGGGGSGGGGSGGGGSAVQLVESGGGLVQPGGSLRLTCAASGFTFDNYGMSWVRQAPGKGLEWVSAIMWNGGTTYYAEPMKGRFTISRDNAKNTVYLQMNSLKSEDTAVYYCARHGSSWYAMDYWGQGTQVTVSS
notes: Format as for f1; also called anti-CD33 IgG1 AS199757; AS199757 scFv
In the case of B6, the Kd with human CD33 protein was 1.5 nM.

B7: AS141974 (scFv)
scFv (VL-linker-VH): NFMLTQPAAVSVSLGETARITCQGGNFGSYYASWYQQKPGQAPVLVIYANSNRPSGIPERFSGSSSGGTATLTISGAQAEDEADYYCQSYDSSAAVFGGGTHLTVLGGGGSGGGGSGGGGSQVQLQESGGGLVQPGGSLRLSCAASGFTFSSYAMSWVRQAPGKGLEWVSAINSGGGSTYYADSVKGRFTISRDNAKNTLYLQLNSLKTEDTAMYYCAKEGGLYYSDYDELYFGYWGQGTQVTVSS
notes: Format as for f1; also called anti-CD33 IgG1 AS141974; AS141974 scFv
On to B7, for which, in the assay with human CD33 protein, the Kd is 1.79 nM. Further, in the assay with Human CD33 C2 domain, the binding result is “no binding (tested: not given)”.

B8: AS142077 (scFv)
scFv (VL-linker-VH): SYELTQPSAMSVSLGETTRITCQGGNIESSYASWYQQKPGQAPALVIYEDSERPSRIPERFSGSSSGGTATLTISGAQAEDEADYYCQSADSSGYNPVFGGGTHLTVLGGGGSGGGGSGGGGSQVQLVESGGGLVQPGGSLRLSCAASGFTFSSYAMSWVRQAPGKGLEWVSGINSGGGSTYYADSVKGRFTISRDNAKNTLYLQLNSLKTEDTAMYYCAKHLLIIYSDYDVRGSEALDAWGQGTLVTVSS
notes: Format as for f1; also called anti-CD33 IgG1 AS142077; AS142077 scFv
In the case of B8, the Kd with human CD33 protein is 0.348 nM. In addition, the binding result in the assay with Human CD33 C2 domain is listed as “no binding (tested: not given)”.

B9: AS138521 (scFv)
scFv (VL-linker-VH): SSELTQPAAVSVSLGETARITCQGGNFGSYYATWYQQKPGQAPVLVIYANSNRPSGIPERFSGSSSGGTATLTISGAQAEDEADYYCQSYDNSANAVFGGGTHLTVLGGGGSGGGGSGGGGSEVQLVESGGGLVQPGGSLRLSCAASGSTFWSYYMSWVRQAPGKGLEWVSSIYSDGSYAYYADSVKGRFTISRDNAKNTVYLQMNSLKSEDTALYYCATAPTPDGGSWLWYNYWGQGTQVTVSS
notes: Format as for f1; also called anti-CD33 IgG1 AS138521; AS138521 scFv
Regarding B9, the Kd with human CD33 protein is 0.364 nM. For the same molecule, in the assay with Human CD33 C2 domain, the binding result is reported as “no binding (tested: not given)”.

B10: AS200728C (scFv)
scFv (VL-linker-VH): QAVVTQLSSMSGSPGQTVTITCTGSSSNIGGGYYLSWYQQLPGTAPKLLIYNVNNRASGVPNRFSGSKTGSLASLTITGLQAEDEADYYCGSYDESLSYVFGGGTHLTVLGGGGSGGGGSGGGGSQVQLVESGGGLVQPGGSLRVSCAASGFTFKNYYMGWVRQAPGKGLEWISGINSGGEVTTYADSVKDRFTISRDNAKNTLYLQMNSLKPDDTALYYCAGGEGSSWYPDYYYGNGYWGEGTLITVSS
notes: Format as for f1; also called anti-CD33 IgG1 AS200728C; AS200728C scFv
B10: the Kd with human CD33 protein is 0.24 nM.

B11: AS141996 (scFv)
scFv (VL-linker-VH): SSELTQPSAVSVSLGETARITCQGGNVGSSYASWYQQKPGQAPVLVIYEDSERPSGIAERFSGSSSGGTATLTISGAQAEDEADYYCQSADNNGAVFGGGTHLTVLGGGGSGGGGSGGGGSEVQVVESGGGLVQPGGSLRLSCAGSGFTFSSYAMSWVRQAPGKGLEWVSTINSGGGSTYYADSVKGRFTISRDNAKNTLYLQLNSLKTEDTAMYYCANHLLIIYSDYDVRGSEAWETWGQGTLVTVSS
notes: Format as for f1; also called anti-CD33 IgG1 AS141996; AS141996 scFv
With B11, the equilibrium dissociation constant (Kd) with human CD33 protein was 0.0624 nM. In the assay with Human CD33 C2 domain, the binding result is “no binding (tested: not given)”.

B12: AS187809 (scFv)
scFv (VL-linker-VH): EIVMTQSPSSVTASAGEKVTINCKSSQSVLYSSNQKSYLAWYQQRPGQSPRLLIYYASTRESGVPDRFSGSGSTTDFTLTISSVQPEDAAVYYCQQGYSAPVTFGQGTKLELKGGGGSGGGGSGGGGSQVQLQESGGGLVQPGGSLRLSCAASGFTFSRYYMSWVRQAPGKGLEWVSSIYSDGSNTYYTDSVKGRFTISRDNAKNTVYLQMNSLKSEDTAQYYCATDRDCSGIHCGAFGYWGQGTQVTVSS
notes: Format as for f1; also called anti-CD33 IgG1 AS187809; AS187809 scFv
On to B12, for which the Kd in the assay with human CD33 protein is 1.08 nM.

B13: AS199772 (scFv)
scFv (VL-linker-VH): SYELTQSPSVSVALRQAAKITCRGDNIETKYAYWYQQKPGQSPLLVIYKDDNRPSGIPERFSGSNSGNMATLTISGAQAEDEADYYCQVWDSSANWVFGGGTHLTVLGGGGSGGGGSGGGGSQVQLQESGGGLVQPGGSLRLSCAASGFTFSSYWMYWVRQAPGKGLEWVSAMNTGGGSTYYGDSVKGRFTVSRDNAKNTLALQMNSLKPEDTALYYCARSWGGMYSGGYYEYSGMDYWGKGTLVTVSS
notes: Format as for f1; also called anti-CD33 IgG1 AS199772; AS199772 scFv
In the case of B13, in the assay with human CD33 protein, the Kd is 0.067 nM.

B14: AS142096 (scFv)
scFv (VL-linker-VH): NFMLTQPSAVSVSLGETARITCQGGKVGSNYASWYQQKPGQAPVLVIYGDDSRPSGIPERFSGSSSGGTATLTISGAQAEDEADYYCQSYDSSGYNAVFGGGTHLTVLGGGGSGGGGSGGGGSQVQLVESGGGLVQPGGSLRLSCAASGFTFFSYYMSWVRQAPGKGLEWVSSIYSDGSNTYYADSVKGRFTISRDNAKNTVYLQMNSLKSEDTALYYCATAGYYSDYVEFEYWGQGILVTVSS
notes: Format as for f1; also called anti-CD33 IgG1 AS142096; AS142096 scFv
On to B14, for which the Kd in the assay with human CD33 protein is 0.27 nM. The binding result with Human CD33 C2 domain is given as “no binding (tested: not given)”.
